# Assay results: publication PMC5413884, “Enzyme discovery beyond homology: a unique hydroxynitrile lyase in the Bet v1 superfamily” (Scientific Reports, 2017)
# Key:
# DtHNL1 [1] = target: T1, DtHNL1 (Davallia tyermanii, UniProt A0A1C9V3S9); experiment: benzaldehyde formation at […] nm, Michaelis-Menten fit; format: biochemical; details: cleavage direction; 50 mM sodium citrate-phosphate pH 5.0, 25 °C
# T1 construct: gene HNL1; dimer; about 20 kDa
# DtHNL1 [2] = target: T1, DtHNL1; experiment: X-ray crystal structure, soaking; format: binding; details: active site
# [3] = target: Davallia tyermannii hydroxynitrile lyase 1 (DtHNL1) (Davallia tyermannii); experiment: crystal structure; SeMet-SAD structure at 1.85 Å and native crystals soaked with 4-hydroxybenzaldehyde, benzoic acid or (R)-mandelonitrile; sitting drop vapor diffusion, 16 °C, protein in 10 mM Tris-HCl pH 8.0
# N#C[C@H](O)c1ccccc1 = experiment: purified protein; format: biochemical, Davallia tyermanii; details: cleavage direction, 50 mM sodium citrate-phosphate pH 5.0, 25 °C
# O=Cc1ccccc1 = experiment: GC of (R)-mandelonitrile formed, initial rates, Michaelis-Menten fit; format: biochemical, Davallia tyermanii; details: apparent, synthesis direction, biphasic MTBE/buffer 2:1, 2 M HCN, pH 4.0, 10 °C
# [4] = crystal soaked with (R)-mandelonitrile
molecule,measurement,setting,value
"N#C[C@H](O)c1ccccc1 [(R)-mandelonitrile, (2R)-2-hydroxy-2-phenylacetonitrile]",Km,DtHNL1 [1],300 ± 30 µM
same,"X-ray crystal structure, soaking",DtHNL1 [2]; [4],5E4B (DtHNL1-MXN)
Davallia tyermannii hydroxynitrile lyase 1 (DtHNL1) (enzyme),stoichiometry N,[3],2
DtHNL3 (Davallia tyermanii),Km,N#C[C@H](O)c1ccccc1,750 ± 80 µM
same,kcat,N#C[C@H](O)c1ccccc1,356 ± 8 s⁻¹
O=Cc1ccccc1 [benzaldehyde],"X-ray crystal structure, soaking",DtHNL1 [2]; [4],"Bound benzaldehyde (cyan, right) and (R)-mandelonitrile (yellow, left) as observed in a crystal"
DtHNL2 (Davallia tyermanii),Km,N#C[C@H](O)c1ccccc1,450 ± 50 µM
same,kcat,N#C[C@H](O)c1ccccc1,156 ± 3 s⁻¹
DtHNL4 (Davallia tyermanii),Km,N#C[C@H](O)c1ccccc1,630 ± 60 µM
same,kcat,N#C[C@H](O)c1ccccc1,272 ± 5 s⁻¹
DtHNL1 (Davallia tyermanii),Km,O=Cc1ccccc1,14000 ± 2000 µM
same,kcat,O=Cc1ccccc1,70 ± 7 s⁻¹
O=C(O)c1ccccc1 [benzoic acid],"X-ray crystal structure, soaking",DtHNL1 [2],5E4D (DtHNL1–BEZ)
